Patent US20140057833A1 (TEMPLE UNIVERSITY OF THE COMMONWEALTH SYSTEM OF HIGHER …, published 2014)
Non-standard residues stand in square brackets, D forms with d. No end group written: not given here. βAla = NCCC(=O)O

B1: ADP 25-β-AlaNH2 (peptide)
peptide: NIPGLYYFAY[βAla]-NH2
modifications: N-terminus assumed
SMILES: CC[C@H](C)[C@H](NC(=O)[C@@H](N)CC(N)=O)C(=O)N1CCC[C@H]1C(=O)NCC(=O)N[C@@H](CC(C)C)C(=O)N[C@@H](Cc1ccc(O)cc1)C(=O)N[C@@H](Cc1ccc(O)cc1)C(=O)N[C@@H](Cc1ccccc1)C(=O)N[C@@H](C)C(=O)N[C@@H](Cc1ccc(O)cc1)C(=O)NCCC(N)=O

Molecular target: T1, AdipoR1 (UniProt Q96A54 1-375, limits assumed)
T1 sequence (looked up): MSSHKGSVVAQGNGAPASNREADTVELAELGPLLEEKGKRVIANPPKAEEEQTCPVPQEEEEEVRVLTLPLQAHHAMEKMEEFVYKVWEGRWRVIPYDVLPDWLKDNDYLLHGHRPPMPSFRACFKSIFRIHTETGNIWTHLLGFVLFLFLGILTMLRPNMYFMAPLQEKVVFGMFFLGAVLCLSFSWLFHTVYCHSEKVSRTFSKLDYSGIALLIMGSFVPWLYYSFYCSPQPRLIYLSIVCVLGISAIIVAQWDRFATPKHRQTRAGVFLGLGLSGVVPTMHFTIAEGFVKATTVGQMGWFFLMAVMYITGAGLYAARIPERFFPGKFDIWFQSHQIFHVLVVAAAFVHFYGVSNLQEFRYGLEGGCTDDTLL
Assay: cell-based or functional assay

Molecule	MCF-7 cell growth restriction at 50 ng/mL	MCF-7 cell proliferation inhibition at 50 ng/mL relative to untreated controls
globular adiponectin (gAd) (from UniProt Q15848 108-244) (ligand)	18%	–
B1	–	20%
